The values below come from a protein production outcome set (Wang et al. 2014).

The series can be described thus: label from the status in PepcDB records.
Turning to “MIETPSLVDQYCHGVLRTELGLGTFEAQLARTEGPPAPGTTLFDTQTGFAVRRWCPPLLGLEPHCPPARYLARRRELGVMEADRRLLRGSGITTYLVDAGLPGDLTGPTEMATAADADTREIVRLELLAEQVADTSGTVESFLANLAEAVHGAAVNAVAFTSVAGVRHGLALAPEPPGPGEVRGAAARWLTGREVGGELSDPVLLRHLLWIAVASGLPLQLHAGLGEPGLRIDRTDPVLLTDFVRTTAGLGTDLVLLHGYPYHRHAAHLAGVFPHVYADSGAALVRTGARAATVLAEILELAPFGKILFSSGAQGLPELHVVAARLFREALGRVLGTWVAEGAWSPGDAQRVAAMIASGNAARVYGLE”, the protein production entry is “failed”. On to “MIFERIKSEGLAHLSYFVGSGNEAIVIDPRRDCQIYFDIARREGMKIKYIFETHRNEDYVIGSLELKELTDAEIYHGKGVDFKYGIFVSDGQEFNFGSMKLTALHTPGHTDESMSYALTYPESGKAPLMVFTGDALFVGDVGRTDLYGPEEIPRMAANLYESIFNKILPLGDGVILCPAHGAGSLCGGAISKREYSTLGLERIQNPALQRTDKEEFIKFKLEEKLEFPPYFKKMEQYNLQGPPLLKGLPVPELLFPKEFVKEMEKGAMVVDTRMPHSFGGAHIKGSYGIWLKGLPYYAGWVLPYDKPILLVLEEKDQLETAVSYLVRIGYDSIAGFLNGGISSWYMKALPVESLNLISVQSLKDKIEKNEEMVILDVRRDEEWEKGHIEGARHVYVGHLEENLDKVPRNSPIIVYCDSSRRSNIAASILKKKGYDMVYNVLGSMTAWKNAGYKVVKLEHHHHHH”, for which the protein production result was “not failed”. On to “MIFRTFIVVLCLIPCFSYGSEAYLNAAEKQFESLLELLPEDEKREWKHRDFEEVMDYSNKLDELKKTAEYIRNQSDSSDVDGILAFSFLADAIQYELDLKTSLVNDLGLHLYRSYEINNVNPVRKAIEAELVALQNASGALQLQSKLTKYFKLQREIAELSKNPPTKMTLEYRPQDNAWDSDPELVKKYVLFDWLSALSKLKEKLYELQKIKDSFASFNYLRLKDPIAFVSLGAQLAILLVAVAGYLISYTEKPSIKVVASLVAASMLLSVFLVFVSSSTIFNLIVQASIPSLFIAYWVYRNSHNKKVQPTADGRG”, for which the protein production result was “failed”. As for “MIFSPDAFTGSILAVEGIRDAAVILNGPTGCKLYHSFLSDRQFPRESSHDPLAFQDEFYFGQPRVPCTCLDGEDFIQGSLEKFERALAAVAAKEKGLLVVINSPGASLVGDDLENVIKNAGLQNRCFVVEKTGFSLPAAQGFENTTLTLLEHLKLRSLFRPHNRSEFPKKVNLIGLSLLHKHWEGSVAEMKRLLSFLGLEVGAILLAGTSLDEIRESNNAACNIVLFPEYGRRVAEWYRKHFGIPAVFSPLGAPLGFDANESLLREVAAILNIDPAPALAEVREARQTSYRQISRFHSFSGLPKGASFSIQAESSLVFPLTHWLYSYLGMAPYAVKLLPGSDPEMARSLKSFLTEKGFCEAWDRDLSLESVDIAFADSFTLQLLKAKGCCKAGIEISLPDRGYIHFIPKTYLGVSGALFLLEEIINGLRST”, the protein production result is “failed”. As to “MIFSSPSQKNHPVGGLEEVMAQGTFVQALRKEAALSSTFMKGRSLMLNGAVLSIEDSGSRFSKNVTLEGAVRGSRGDLYKTHVALDMDEHEVIDYDCDCPAAYRYPGMCKHAIATALAYLDASGIEPVEGLRTPVRTFTAAPKQAARPSSAAPAVNPNFPFPAPVPTSPSLMKALSDLSDARMDELAGMRRKLAGTVDPDAPKAVLEPSLVPYYNPLFADRFSWALELRIRCGSVSYVVKDIDGMAAAYVRGGTFSYGKKLTFLHAPEAFDEVSVRLLDLVVATVVYLSDITSSRSASYDFARSGFVAERQLPLSEHDIVYMLDLLRGRTISFEPAWSRGTTTHRSYEVAVELSPVGEDEASAKQPPLLAAKIAPAAGGSYDLRLPADTYCFVAGDAAYLVDTHRARRADAAFAQHAAPFLSRLLPCRTPVHIAAEQVGEFCRMALPVLREYTGLTAPAVLDTVAPEPSFAMAIGVDDGLVTCKITVSYGDWSADLFSLGAPGSPFEERRPGVPPRDEMAEFRVMDTAALYFDFYEGGLAFEERDDESLFHLLTEGLSALSELGEVMLSDRLRQVSVRPAPKLSVRATVKSNLLDVELGASGLSAADLAIYLDSYKRHQTFARLTSGDIIRLDEGARAAFGLAEDLGVDAVDLLDGVSLPASSTLFVDSMLARTPELEADRDAAFRRTVERLDTLGKMDFTVPVSLKATLRGYQVDGYQWLGSLEHLGLGGILADDMGLGKTLQMIAHILARVEAGDAKPTLVVCPASLVYNWTAELERFAPSLDVCAIVGAKAQRRVQIAGADEHNVVITSYDLMRRDIDEYAEQDFARVVLDEAQYIKNPLTQVAHAAKRLPAGVRFALTGTPIENRLSELWSIFDFLMPGLLGSRESFAKRFESPVEHAEGDSAARLQALVSPFVLRRVKEDVVADLPEKIEDTVMAQLTGEQRKLYLANQDRIAQQVQHREVSEFKKDKLKVLAELTKLRQICCDPHLHYEDYKAGSAKLDACMELVHGALDGGHHILLFSQFTGMLDIIGKRLAKEDIGFLKLTGASSKESRAKMVAQFQAGEVPVFLISLKAGGVGLNLTAADVVIHYDPWWNVAAQDQATDRAHRIGQQHTVTVYKLIAKDTIEERIMRMQESKRDLVNSVLGGDGISSALFTREDVLALLGGDGR”, the protein production entry was “failed”. Regarding “MIFYFSGTGNSAWVARQLAEGQNEELLSIAMEIDRNKAYKLKEGEKVGFVFPVYAWGPPKIVLRFIHQLKLDKPGYLFFVCTCGDDTGRTAQIFSSAVTRKGWQCVAGYSVTMPNTYVSLPGFDVDDKDIETQKVQNAVARVRFINEEITSRAQMKQYNCHEGALPFTKSYLLRPLFNAFLMSPKPFHTTEACIGCKKCEKVCPVGNITVTDRPVWGGNCTQCLACYHVCPVHAVEYGKMTGKKGQYKGRLLKDL”, the protein production entry is listed as “failed”. On to “MIGDLDISGVFLPTLLVLMGITYGLYLLVHGVLTRLHFYRLVWHRALFNVGLYALLLGAVDSLSRYLMT”, for which the protein production result is “failed”. Consider “MIGDMNELLLKSVEVLPPLPDTVSKLRKYVSEANSNIETMKVAEIISSDPLMTAKLLQLANSPYYGFTREITTINQVITLLGVGNIINIVMADSIRDNFKIDVSPYGLNTQNFLKTCNEEATFIANWLNDEDKKLSHLLVPCAMLLRLGIVIFSNFLIQNHKDKDFLAFLNKNENLALAENEFLGVDHISFLGFLLHRWNFDDVLIESICFVRTPHAAREKVKKSAYALAITDHLFAPHDGSSPFNAKAAVALLKEAKTQGINFDLNNLLSKLPNKAKENLNKED”, for which the protein production entry is “not failed”. For “MIGFLILLFIFVAGFFIMQMLIYRFAKKNIHKYTKIKWFHMWLHMNMKKGPRLDFFDFVVTVLVCIVWKIWLLPFI” the value was “failed”; for “MIGHNSPTRTAPLISVTTLDKVALSRLGRDVAVRNRKSRAVLAYLALSPHGFETRERICGLLWSESDEARARASLRQTVVDLKACLAEIEGVFSGDRLNVTLKPSLVTVDVGEIRHELKAGRIPPILLERQRVAESFLNGLDDIDPSFRNWVLVQRQCLQDEFISCLEAMAKAAADWPALKRAGQALLNLDPTNEIGCRAVMEASARMGDQATALRAYKGLWDLLETEFDSEPSAATQALVSDIKLGTIGATDRGAVTAIAAEAFGSQAQRLQEPAAGVLLFVREFELVSGSVRARNAVQIFRSELVASLVRFRDWAVMEWEGHPPRFTENAYCIEATGFIDGPTLRLSMTLKQLASGRYIWSEQFVIENSQWYQTQQRLIRRIAVALGVSMSSERLVQIASIPDLSLEQFDRWLRAQELIFQWRPESEERAEALFRSIIAESPRFAAAYAGLAGIINSRHLIFPGIGRRRERHAEALTFAKQATQIDPIDSRSQLHLAWSYAMNGIPQQAAISFLLACELNGNDPWTLVSASLGLAYCDDRENARRIATLALQTGLGVSRLQWSYQAGVRFLLGDYAGCVEAAERAADSVSYIGGWKAAALALLGNEKAAHEEADRFLAQLKTTWFGNESPEPGNVGTWLMDSFPIYSPEAVEALRRGLAGAGIVVSHMPLPEPVLSAAPDGVVRDA”, “failed”; for “MIGIVMLSKIANIDAARQGLDLKVKVLSLNKKTIKNDRGETTYFYGIIGDDTGTVSFTAWSFPAAVKSGDVVEIKNCYSSLYNGKIRIYVDSRSQVVLKPDEYLEVKRTVELVKLRDLSLTTPYVSVIGRISGIKEKNYDSDRGSKIVYQGFIEDETAKVRISSFGKPLKDGEIVRVENARVSQYNGYMGISIGENSSIDNVQAQIEVGSRPIFIAEIKSPIGGVTITGFAVSVGQGSRIFTKCSICKKILEDGKCKDHPRAPVYLDIFGYFLLSDGTGSLTCYLNKDSFLPYIKMDTEEFKSQAFSMNPNMLIKKNILGKCLSVTGDLRLRDDKITMNASSIKEADADSVKDIEKTIQEEFQLEHHHHHH”, “failed”.
